Experimental data reported in patent US20120030779A1 (UNIVERSITY OF UTAH RESEARCH FOUNDTION, published 2012).

Molecular target: T1, glucose-6-phosphate dehydrogenase (G6PD), mouse heart (mouse, UniProt Q00612 2-515)
T1 construct: Endogenous protein immunoprecipitated or detected with rabbit anti-G6PD; also called G6PDH
Assay: co-immunoprecipitation (anti-G6PD IP, anti-CryAB blot) from NTg mouse heart homogenate
Procedure: Immunoprecipitation and Immunoblotting: Heart homogenates were first prepared in TBS (10 mM Tris, 150 mM NaCl, pH 7.4) and centrifuged at 10,000 g for 15 minutes at 4° C.

T1 sequence (Q00612 2-515 limits assumed): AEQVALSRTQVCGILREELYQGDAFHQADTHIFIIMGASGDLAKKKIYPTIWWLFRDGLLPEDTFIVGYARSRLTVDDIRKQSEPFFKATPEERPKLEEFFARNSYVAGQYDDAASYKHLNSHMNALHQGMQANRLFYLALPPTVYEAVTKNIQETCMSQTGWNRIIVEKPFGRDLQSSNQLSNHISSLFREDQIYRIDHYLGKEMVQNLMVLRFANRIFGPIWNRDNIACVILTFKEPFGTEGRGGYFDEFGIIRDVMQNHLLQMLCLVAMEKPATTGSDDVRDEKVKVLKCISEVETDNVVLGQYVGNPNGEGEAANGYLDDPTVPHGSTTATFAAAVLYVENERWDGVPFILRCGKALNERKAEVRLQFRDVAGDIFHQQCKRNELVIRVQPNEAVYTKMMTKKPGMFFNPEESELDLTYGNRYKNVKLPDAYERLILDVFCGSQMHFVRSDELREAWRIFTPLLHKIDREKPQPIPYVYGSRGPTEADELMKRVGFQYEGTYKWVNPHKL

binding result: no binding
B1: mouse alphaB-crystallin (endogenous CryAB of non-transgenic mouse heart) (other, UniProt P23927 1-175, looked up)
chain: MDIAIHHPWIRRPFFPFHSPSRLFDQFFGEHLLESDLFSTATSLSPFYLRPPSFLRAPSWIDTGLSEMRLEKDRFSVNLDVKHFSPEELKVKVLGDVIEVHGKHEERQDEHGFISREFHRKYRIPADVDPLTITSSLSSDGVLTVNGPRKQVSGPERTIPITREEKPAVAAAPKK
notes: Only CryAB present in NTg heart extracts; also called CryAB (NTg)
